Experiments:
Test in all cases: peptide array
[1] = target: T1, EcoP15I Res strongest DNA-binding region (array peptides) (UniProt Q5ZND2 637-670)
T1 chain: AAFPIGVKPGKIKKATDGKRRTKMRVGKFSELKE

[2] = target: T2, EcoP15I Res peptide 531-550 (spot F7) (UniProt Q5ZND2 531-550)
T2 chain: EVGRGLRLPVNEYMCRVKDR

[3] = target: T3, EcoP15I Res peptide 126-145 (spot B6) (UniProt Q5ZND2 126-145)
T3 chain: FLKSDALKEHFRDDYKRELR

B1: KW30-1/KW30-1c, specific dsDNA (dsDNA)
DNA 1: CGTAATCGTACCCAGCAGATATCGGTACCG
DNA 2: CGGTACCGATATCTGCTGGGTACGATTACG
- binding result [1]: binds
- binding result [2]: no binding
- binding result [3]: no binding
